In patent US20250281598:

Assays:
[1] = test system: 2G12 (anti-HIV gp120 broadly neutralizing antibody); test: pulldown; settings: 2'-F pyrimidines, qPCR bead assay as glyco-RNA/DNA hybrid
[2] = test system: 2G12 (anti-HIV gp120 broadly neutralizing antibody); test: filter; settings: 2'-F pyrimidines, every U is 2'-F-5-ethynyl-U clicked to Man9-cyclohexyl azide (3 glycans)
[3] = test system: 2G12 (anti-HIV gp120 broadly neutralizing antibody); test: FP filter; settings: 2'-F pyrimidines; every U is 2'-F-5-ethynyl-U clicked to Man9-cyclohexyl azide (4 glycans); nitrocellulose filter binding, 32P RNA not gel purified; 20 mM Tris pH 7.5, 150 mM NaCl, 2 mM MgSO4; Fbmax 7.0%

In the case of “GGAGAGAAGGAGGGAAGAGAGAAAAAAAACAGAGGGAACCCAGGUGAUUGGGGCAAGCGACACAAAGCCCGG [15F3-M1]”, the Kd ([1]; every U is 2'-F-5-ethynyl-U clicked to Man9-cyclohexyl azide (3 glycans), Fbmax 1.1%) is reported as 31 nM.
With “GGAGAGAAGGAGGGAAGAGAGAAAAAAUCGACGGAACAGGGGCCCCCUGUGGAAAGCGACACAAAGCCCGG [15F1]” the Kd ([2]; 20 mM Tris pH 7.5, 150 mM NaCl, 2 mM MgSO4, not gel purified, Fbmax 23%) was 40 nM and the Kd ([1]; every U is 2'-F-5-ethynyl-U clicked to Man9-cyclohexyl azide (3 glycans), room temperature, Fbmax 7.9%) was 40 nM.
For “GGAGAGAAGGAGGGAAGAGAGAAAAAAAACAUAGGGAACCCAGGUGAUUGGGGCAAGCGACACAAAGCCCGG [15F3]”, the Kd [3] was 13 nM and the Kd ([1]; every U is 2'-F-5-ethynyl-U clicked to Man9-cyclohexyl azide (4 glycans), room temperature, Fbmax 3.8%) was 19 nM.
“GGAGAGAAGGAGGGAAGAGAGAAAAAAAAAAGCGCCCAGGUGAUUGGGCGCAAGCGACACAAAGCCCGG [15F3-M1-Mod]” showed a Kd ([2]; gel purified and refolded, Fbmax 51%) of 36 nM.
